Measurements reported in article PMC5472786.

Tests used:
[1] = tested on: INO80 complex (Ino80-FLAG) (Saccharomyces cerevisiae S288C); experiment: EMSA; conditions: saturating INO80, 30 C, EMSA: 10 mM Na-HEPES pH 7.8, 4 mM MgCl2, 60 mM NaCl, 0.2 mM EGTA, 0.04 mM EDTA, 8% glycerol, 0.1 ug/uL BSA, 30 min, footprinting and crosslinking at 30 C
[2] = tested on: Ino80 (catalytic subunit within INO80 complex) (Saccharomyces cerevisiae S288C); experiment: site-specific DNA photocrosslinking; conditions: 10 A tether, in INO80 complex, AB-dUMP (10 A) or ABG2-dUMP (18.6 A) at nt -58 from dyad, EMSA: 10 mM Na-HEPES pH 7.8, 4 mM MgCl2, 60 mM NaCl, 0.2 mM EGTA, 0.04 mM EDTA, 8% glycerol, 0.1 ug/uL BSA, 30 C, 30 min, footprinting and crosslinking at 30 C
[3] = target: H2A-containing mono-nucleosome (recombinant Xenopus laevis histone octamer on 601 DNA with 70 bp of extranucleosomal DNA) (Xenopus laevis) (UniProt P06897); experiment: native gel or EMSA; 70N0 nucleosomes with photoreactive DNA bound with saturating amounts of INO80 at 30 °C; extent of binding assessed on 4% native polyacrylamide gels

Substance: 70N0 nucleosome, photoreactive dUMP at nt -33/-30
- binding signal (% nucleosomes bound) ([1]; photoreactive dUMP at nt -30 to -33 from dyad): > 90

Substance: 70N0 nucleosome, photoreactive dUMP at nt -58
- binding signal (% nucleosomes bound) ([1]; AB-dUMP (10 A) or ABG2-dUMP (18.6 A) at nt -58 from dyad): > 90
- binding signal (fold crosslinking vs no nucleotide) ([2]; ADP): 4
- binding signal (fold crosslinking vs no nucleotide) ([2]; ATPgS): 4

Substance: INO80 complex (from UniProt P53115 1-1489; P80428 1-489; P40154 1-320)
- percent of nucleosomes bound [3]: > 90%
